The target of experiment [1] is T1, GII.4 Houston 2002 (ABY27560.1) VLPs (human norovirus GII.4 Houston 2002, UniProt P54635 1-539).
T1 construct: also called GII.4 Houston 2002 antigen; GII.4 Houston VLPs
T1 chain: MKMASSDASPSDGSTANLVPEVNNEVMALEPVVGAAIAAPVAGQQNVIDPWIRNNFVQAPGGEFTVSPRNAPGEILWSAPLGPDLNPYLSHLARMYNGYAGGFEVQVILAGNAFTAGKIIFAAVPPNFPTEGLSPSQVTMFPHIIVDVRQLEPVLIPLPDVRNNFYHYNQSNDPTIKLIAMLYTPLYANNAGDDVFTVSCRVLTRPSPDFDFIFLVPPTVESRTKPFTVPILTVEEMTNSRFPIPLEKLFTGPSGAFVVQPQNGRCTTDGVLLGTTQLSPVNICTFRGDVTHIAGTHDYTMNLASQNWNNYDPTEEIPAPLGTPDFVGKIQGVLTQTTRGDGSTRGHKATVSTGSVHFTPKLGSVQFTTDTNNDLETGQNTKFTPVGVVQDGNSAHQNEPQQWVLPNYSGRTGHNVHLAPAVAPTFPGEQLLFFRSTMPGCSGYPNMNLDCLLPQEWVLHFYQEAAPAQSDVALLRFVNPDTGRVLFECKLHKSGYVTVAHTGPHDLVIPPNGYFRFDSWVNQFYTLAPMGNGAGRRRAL
Description: ELISA on GII.4 Houston 2002 VLPs.

In experiment [2] the target is T2, GII.4 Sydney 2012 virus-like particles (VLPs), based on strain AFV08795.1 (human norovirus GII.4 Sydney 2012, UniProt P54635 1-538).
T2 construct: also called GII.4 VLPs
T2 chain: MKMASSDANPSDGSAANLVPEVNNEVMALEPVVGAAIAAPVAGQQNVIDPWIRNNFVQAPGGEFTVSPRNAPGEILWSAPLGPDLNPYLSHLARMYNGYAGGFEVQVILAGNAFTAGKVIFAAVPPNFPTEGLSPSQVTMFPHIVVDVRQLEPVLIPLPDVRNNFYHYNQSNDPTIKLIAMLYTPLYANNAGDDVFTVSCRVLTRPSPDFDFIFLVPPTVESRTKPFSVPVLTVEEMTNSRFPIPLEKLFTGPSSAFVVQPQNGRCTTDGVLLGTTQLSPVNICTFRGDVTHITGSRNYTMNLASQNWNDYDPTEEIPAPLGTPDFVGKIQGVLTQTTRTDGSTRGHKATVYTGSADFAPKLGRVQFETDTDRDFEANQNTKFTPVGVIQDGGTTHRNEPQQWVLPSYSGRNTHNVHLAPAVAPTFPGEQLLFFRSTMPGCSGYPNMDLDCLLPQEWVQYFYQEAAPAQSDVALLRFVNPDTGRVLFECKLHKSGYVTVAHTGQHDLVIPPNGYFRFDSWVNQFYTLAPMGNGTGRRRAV
Briefly: indirect ELISA on coated GII.4 Sydney 2012 VLPs.

Experiment [3] addresses GII.4 Sydney 2012 virus-like particles (VLPs), based on strain AFV08795.1 (human norovirus GII.4 Sydney 2012, UniProt P54635 1-538). Description: indirect ELISA on coated GII.4 Sydney 2012 VLPs.

Among the data in US20210324050A1 (VANDERBILT UNIVERSITY, published 2021) are binding result and EC50 values, retold here.

B1: NORO-296A (antibody, V domains shown)
VH: QVQLVESGGGLVKPGGSLRLSCAASGFTFSEYYMSWVRQAPGKALEWVSYITSSFSSTSYADSVKGRFVISRDNAKNSLYLQMNSLRVEDTAVYYCARYGAEYGSRSFYFLDWGQGTLVTVSS
VL: QSVLTQPPSVSGAPEQRVTISCTGSSSNIGAGYDVHWYQVLPGIAPKLLIYDNNKRPSGVPDRFSGSKSGTSASLAITGLQAEDEADYYCQSYDSRLSSNVVFGGGTKLTVL
Regarding B1, the binding result in experiment [1] is “binds”.

B2: NORO-279A (antibody, V domains shown)
VH: QVQLVESGGGVVQPGRSLRLSCAASGFTFTKYGMHWVRQAPGKGLEWVAFIAYDGSVKYYGDSAKGRFAISRDNPKNTVYLQMNSLRAEDTAVYYCAKVEIHYYSNSLLGMDVWGQGTLVTVSS
VL: QSVLTQPPSASGTPGQRVTISCSGGNSNIGISYVYWYQHLPGTAPKLLISKNNLRPSGVPDRFSASKSGTSASLAISGLRSEDEAEYYCATLDINMTWVFGGGTKLTVL
On to B2, for which the binding result in experiment [1] is on record as “binds”. The molecule also came in with an EC50 in experiment [2] of 0.2 µg/mL.

B3: NORO-263 (antibody, V domains shown)
VH: QVQLVESGGGLVKPGGSLRLSCAASGFTLSDYYMSWIRQAPGKGLEWVAYISSSHTSTYYRDSVKGRFTISRDSAKKSLYLQMNSLRVEDTAIYYCARDWVGGRSAYSDHWGQGTLVTVSS
VL: SYELTQPPSVSVSPGQTARITCSGDALPRRPAFWYQQKSGQAPVLVMYDDSKRPSGIPERFSGSSSGTVATLTISGAQVEDEADYHCYSTDSSGKERVFGGGTKLTVL
For B3, the binding result in experiment [1] is recorded as “binds”. In experiment [2], this molecule displayed an EC50 of 0.6 µg/mL.

B4: NORO-246A (antibody, V domains shown)
VH: EVHLVESGGGLVKPGGSLRLSCAASGFTFSRYGMHWVRQAPGKGLEWVSSIVIRSDYKYYADSVKGRFTISRDNAKNSLYLQMNSLRADDTAVYYCARDLVEPGITPVGCDYWGRGTLVTVSS
VL: SNELTQAPSVSVSPGQTARITCFGDALANQYSYWYQRKPGQAPVLVIYKDSERPSGIPQRFSASNSGTTVTLTITGVQAEDEADYFCQSADSTGIYKVFGGGTKLTVL
For the molecule B4, a half-maximal effect in experiment [3] (EC50) was put at 0.2 µg/mL.

B5: NORO-313.1 (antibody, V domains shown)
VH: QVQLVESGGGLVKPGGSLRLSCAASGFTFSDFYMSWIRQAPGKGLEWVGYISSIAGATNYADSVKGRFTISRDSSKRSLYLQMNSLRVEDTAVYYCARMGRLELERRPHYYYPLDVWGQGTLVTVSS
VL: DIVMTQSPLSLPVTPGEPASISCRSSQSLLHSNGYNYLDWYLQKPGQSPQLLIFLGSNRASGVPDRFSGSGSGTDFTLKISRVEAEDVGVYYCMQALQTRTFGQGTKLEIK
For the molecule B5, the binding result in experiment [1] was “binds”.

B6: NORO-327A (antibody, V domains shown)
VH: QVQLEVSGGGLVKPGGSLRLSCAASGFTFTDYYMSWIRQAPGKGLEWVAYISGIMSSTKYADSVKGRFTISRDNGKNSVYLQMNSLTAEDTAVYYCARERVEPPSAVTDFWGQGTLVTVSS
VL: QSVLTQSPSVSGAPGQRVTISCTGTSSNIGAGYDVHWYQQFPGTAPKLLISHNTNRPSGVPDRFSGSKSGTSASLAITGLQAEDEADYYCQSFDSSLRGSRVFGGGTKLTVL
In experiment [3], B6 yielded an EC50 of 0.6 µg/mL.

B7: NORO-278 (antibody, V domains shown)
VH: QVQLVESGGGVVQPGRSLRLSCAASGFTFSSYGMHWVRQAPGKGLEWVAVISYDGSNKYYADSVKGRFTISRDNSKNTLYLQMNSLRAEDTAVYYCAKVTIIAAADLLDYWGQGTLVTVSS
VL: QSVLTQPPSVSGAPGQRVTISCTGSSSNIGAGYDVHWYQQLPGTAPKLLIYGNSNRPSGVPDRFSGSKSGTSASLAITGLQAEDEADYYCQSYDSSLSGPVVFGGGTKLTVL
On to B7, for which the binding result in experiment [1] was “binds”. In experiment [2], this molecule displayed an EC50 of 4 µg/mL.

B8: NORO-123 (antibody, V domains shown)
VH: QVQLVESGGGVVQPGRSLRLSCSTSGFTFSQYPMHWVRQAPGKGLEWVALISYDGMNKYYADSVRGRFTISRDNSENTQYLQMNSLRGDDTAVYYCARVTGDCTGNRCSYWAYYYYGLDVWGQGTLVTVSS
VL: QSALTQPPSASGSPGQSVTISCTGTSSDVGGYKYVSWYQQHPGKAPKLMIYEVTRRPSGVPDRFSGSKSGNTAFLTVSGLQAEDEADYYCGSYAGSTTSGYVFGTGTKVIVL
Take B8: in experiment [1], the binding result is recorded as “binds”. This molecule also had an EC50 in experiment [2] of 5.4 µg/mL.

B9: NORO-315B (antibody, V domains shown)
VH: QVQLVESGGGLVKPGGSLRLSCVASGFTFSDYYMTWFRQTPGRGLEWLSYISAIGGYTEYADSVKSRFIISRDNGKKSLYLQMNSLRAEDSGVYYCAREDCHGTSCYSGDWGQGTLVTVSS
VL: QSVLTQPPSVSGAPGQRVTISCTGSSSNIGAGYDVHWYQQLPGTAPKLLIYHNTNRPSGVPDRFSGSKSGTSAYLTITGLQAEDEADYYCQSYDRSLSKSRVFSGGTKLTVL
For the molecule B9, in experiment [1], the binding result is reported as “binds”. Besides, a half-maximal response in experiment [2] (EC50) required 0.7 µg/mL.

B10: NORO-250B (antibody, V domains shown)
VH: QVQLVESGGGLVKPGGSLTLSCAASGFTFSDYYMNWIRQAPGKRLEWVSYISGIMSSTNYADSVKGRFTISRDTAKKSVYLQMNSLRAEDTAVYYCARATSQGATSYYFDSWGQGTLVTVSS
VL: QSVLTQPPSVSGAPGQRVTISCTGSSSNIGADYDVHWYQQLPGAAPRLLIYADINRPSGVPDRFSGSKSGTSASLAITGLQAEDEADYYCQSYDRSVSGSAVFGGGTKVTVL
Consider B10, for which, in experiment [1], the binding result was “binds”.

B11: NORO-273A (antibody, V domains shown)
VH: QVQLVQSGAEVKKPGASVKISCKASGYDFTSFPMHWVRLGPGQRLEWMGWISAANGNTKYSQKFQDRFTITRDTSASIVHMELSSLRSEDTAVYYCARGGYSSGLYRYSNYYYGMTVWGQGTLVTVSS
VL: DIVMTQTPLSLSVTPGQPASISCKSSESLLHNDRKTYLFWYLQKPGQPPQLLIFQVSNRFSGVPDRFSGSGSGTDFTLRISRVEAEDVGIYYCLQTTQLPLTFGGGTKVEIK
With B11, the binding result in experiment [1] is “binds”. Moreover, the EC50 in experiment [2] was found to be 0.2 µg/mL.

B12: NORO-256A (antibody, V domains shown)
VH: QVQLVESGGGVVQAGRSLRLSCAASGFTFRSYGMHWVRQAPGKGLEWVAIISYDGGSKYYADSVKGRFTISRDNSKNTLYLQMNSLRVEDTALYYCAKDFLRVYSYGWHSFDIWGLGTLVTVSS
VL: QSVLTQPPSVSAAPGQRVTISCSGSSSNIGTYYVSWYQHLPGTAPKLLIYDNDKRPSGIPDRFSASKSGTSATLDIAGLQTGDEADYYCGTWDLSLTAGWVFGGGTKLTVL
Regarding B12, in experiment [1], the binding result is on record as “binds”. Also, the EC50 in experiment [2] is 0.9 µg/mL.

B13: NORO-310A (antibody, V domains shown)
VH: EVQLVESGGGLVRPGESLRLSCVASGFSVSDNYMSWVRQAPGKGLQWVSVIYSGGTTFYTDSVKGRFTISRDKSKNTLFLQMNSLRAEDTAVYFCTRDPSQYYDSRGHYYQTFTPSFDSWGQGTLVTVSS
VL: DIQMTQSPSVMSASVGDRVTITCRASQDISDYLAWFQQKPGKVPKRLIYAASSLQNGVPSRFSGSGSGTEFTLTISSLQPEDFATYYCLQHDTYPLTFGGGTKVEIK
As for B13, the binding result in experiment [1] was “binds”. In addition, the EC50 in experiment [2] is 6.2 µg/mL.

B14: NORO-303 (antibody, V domains shown)
VH: QVQLVESGGGVVQPGRSLRLSCAASGFIFSSYAMHWVRQAPGKGLEWVAVMSYDGNNKYYADSVKGRFTISRDNSKNTLFLQMNSLRPEDTAVYYCARDCRVGWVFTYGMDVWGQGTLVTVSS
VL: QSALTQPPSASGSPGQSVTISCTGTSSDVGGYNYVSWYQQHPGKAPKLMMYEISKRPSGVPIRFSGSKSGNTASLTVSGLQAEDEADYYCSSYAGTYNCVVFGGGTKLTVL
Take B14: the binding result in experiment [1] is given as “binds”. In addition, the response in experiment [2] was half-maximal at 0.5 µg/mL (EC50).

B15: NORO-232A.2 (antibody, V domains shown)
VH: QVQLKQWGAGLLKSSETLSLTCAFNGNSFGAFYWSWIRLSPGKGLEWIGEVNYLGGADYNPSLKSRVTMSADTSKRQFSLSLKSVTAADTGVYFCARGRPHDYSPGSYSRPRRYYGLDVWGQGTTVTVSS
VL: EIVLTQSPATLSLSPGDSATLSCRASQAVSTTYLAWYQQTRGQAPRLLIHGTYTRAIGIPDKFSGTGSGTDFTLTISGLAPEDFAVYYCQQYSSSPYTFGQGTKIEIT
In experiment [3], B15 came in with an EC50 of 0.3 µg/mL.

B16: NORO-251A (antibody, V domains shown)
VH: QVQLVESGGGVVQPGRSLRLSCAASGFTFRSYGIHWVRQAPGKGLEWVALISYDGSSKYYADSVKGRFTISRDNSKNTLYLQMNSLRSEDTAVYYCAKVRLTSYSIGWFSFDYWGQGTLVTVSS
VL: QSVLTQPPSVSAAPGQKVTISCSGSSSNIANYYVSWYQQLPGRAPKLLIYDNNKRPSGIPDRISGSKSGTSATLGITGLQTGDEADYYCGTWDTSLSAWVFGGGTKLTVL
For the molecule B16, in experiment [1], the binding result is recorded as “binds”. In experiment [2], this molecule showed an EC50 of 0.9 µg/mL.
